From patent US20210009673A1, “METHODS FOR REGULATING BREAST CANCERS” (priority 2018, published 2021)

Legend:
β-catenin = experiment: phosphorylation of serines 33, 37 and threonine 41 in β-catenin in HUVS cells; assay type: cell-based, human; conditions: 2 minutes after PTN
Procedure: FIG. 11: FIG. 11 illustrates: human umbilical vein stromal cells not stimulated or stimulated with 50 ng/ml of PTN for 2, 5, 10 or 20 minutes were used to prepare cell lysates that were analyzed in Western blots probed with anti-phospho threonine 308 Akt (panel A), anti-phospho serine 473 Akt (panel B), anti-phospho-serine 9 GSK3β (panel C), anti-phospho-serine 33, 37 and […] β-catenin (panel D) or anti-actin antibodies (panel E). Akt was immunoprecipitated from those lysates using anti-Akt antibodies, incubated with a fusion peptide containing the 20 N-terminal amino acids of GSK3β and analyzed in Western-blots probed using anti-phospho-serine 9 GSK3β antibodies (panel F).
A key function of activated GSK3β in the pathway of β-catenin translocation into the nuclei is to phosphorylate β-catenin serines 33, 37 and threonine 41. […] The levels of phosphorylation of serine 33, 37 and threonine 41 in β-catenin were therefore measured in Western blots of lysates from PTN-stimulated cells probed with anti-β-catenin antibodies that recognize phosphoserines 33, 37 and threonine 41. […] In the control study, β-catenin phosphorylated in serines 33, 37 and threonine 41 was readily detected when the cells are not stimulated with PTN. […]

MCF10A cells = experiment: morphological epithelial to mesenchymal transition in transfected MCF10A cells; assay type: cell-based; conditions: MCF10A cells transfected with RPTPβ/ζ and ALK, stimulated with PTN
Procedure: (§1) FIG. 4: FIG. 4 illustrates in: (A), β-catenin phosphorylated by ALK at tyrosine 333 decreases the association of β-catenin with cadherin. Recombinant E-cadherin serine 692 was phosphorylated with CK2 and GSK3β and incubated with recombinant GST-β-catenin, with GST-β-catenin phosphorylated in vitro by ALK, with GST-β-catenin Y333F, or with GST-β-catenin K292A, Y333F, K335A. The GST-conjugated proteins were captured with glutathione-conjugated beads and the phospho-Ser692-E-cadherin that associated with the GST-conjugated proteins was eluted and analyzed in Western blots probed with anti-β-catenin and anti-E-cadherin antibodies. […] After incubation for 20 minutes at 37° C., β-catenin was then captured with glutathione beads and, after extensive washing, eluted with SDS buffer and analyzed in Western blots with either anti-pan-cadherin antibodies, anti-phospho-tyrosine antibodies, or anti-β-catenin antibodies to determine if β-catenin phosphorylated by ALK at tyrosine 333 associates with cadherin. […] The ratio of cells dissociated in calcium-containing media (NTC) vs. the cells dissociated in calcium-free media (NTE) (a “dissociation index,” see Experimental Procedures) was measured. […] The morphological appearance was then analyzed 36 hours later and compared with cells transfected with an equal amount of control empty vector. […]

MCF-7 cells = experiment: homophilic cell-cell adhesion assay (ratio NTC/NTE); assay type: cell-based
Procedure: as §1

B1: pleiotrophin (protein, UniProt P21246 33-168, looked up)
Pleiotrophin: GKKEKPEKKVKKSDCGEWQWSVCVPTSGDCGLGTREGTRTGAECKQTMKTQRCKIPCNWKKQFGAECKYQFQAWGECDLNTALKTRTGSLKRALHNAECQKTVTISKPCGKLTKPKPQAESKKKKKEGKKQEKMLD
- phosphorylation of serines 33, 37 and threonine 41 in β-catenin (β-catenin): sharply decreased
- cell morphology (MCF10A cells): assumed a mesenchymal fibroblast-like shape
- ratio NTC/NTE (MCF-7 cells; PTN-stimulated MCF7 cells expressing both RPTPβ/ζ and ALK): about 0.38
- ratio NTC/NTE (MCF-7 cells; PTN-stimulated MCF-7 cells transfected with ALK alone): about 0.25
